Experimental data reported in patent US20220119534A1 (DRAGONFLY THERAPEUTICS, published 2022).
Several values for one entry are separate records, joined by “and”; a condition that tells them apart may be missing. Identical values can stand only once.

Assays:
[1] = target: T1, Human CLEC12A expressed on cells (Ba/F3-hCLEC12A, PL21, HL60) (human, UniProt Q5QGZ9 1-265); assay: cell-based or functional assay
T1 sequence: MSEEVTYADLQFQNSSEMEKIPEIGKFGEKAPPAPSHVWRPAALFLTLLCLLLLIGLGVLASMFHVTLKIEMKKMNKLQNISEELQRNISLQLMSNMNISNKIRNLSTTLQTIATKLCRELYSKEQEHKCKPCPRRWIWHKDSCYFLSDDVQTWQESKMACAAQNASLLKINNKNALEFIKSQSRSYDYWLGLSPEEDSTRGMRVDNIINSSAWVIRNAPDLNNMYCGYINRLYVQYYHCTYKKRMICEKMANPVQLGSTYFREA

[2] = target: T1, Human CLEC12A expressed on cells …; assay: cell-based or functional assay; remark: listed apart in the source
[3] = target: T2, Human CD16a F158 (FcγRIIIa F158) (human, UniProt P08637 17-208, biotinylated); assay: SPR 25C, steady-state fit, average
T2 construct: Bought recombinant receptor; also called hFcγRIIIa F158

[4] = target: T3, Human CD16a V158 (FcγRIIIa V158) (human, UniProt P08637 17-208, biotinylated); assay: SPR 25C, biotinylated CD16a V158 captured
T3 construct: Bought recombinant receptor; also called hCD16aV; hFcγRIIIa V158
Experimental: Human and cynomolgus CD64, high and low affinity alleles of CD16a (V158 and F158, respectively), two alleles of CD32a (H131 and R131), CD16b, CD32b and cynomolgus CD16 were captured via biotin on a primed (according to the manufacturers instruction) Biacore chip. […] Due to irreversibility of streptavidin-biotin interaction, the capture step for all receptors except FcγRI (CD64) was performed just once prior to the start of the binding experiment. hCD64 and cyno CD64 capture on the CAP chip surface was performed during each cycle in accordance with the manufacturer's instructions for the Biotin CAPture kit.

[5] = target: T4, Human CLEC12A-His (recombinant, K244 WT) (human, UniProt Q5QGZ9 65-265); assay: SPR, two-state fit; after forced oxidation
T4 construct: Made in house (Dragonfly Tx); also called hCLEC12A; hCLEC12A-His; not shown: His tag
T4 sequence: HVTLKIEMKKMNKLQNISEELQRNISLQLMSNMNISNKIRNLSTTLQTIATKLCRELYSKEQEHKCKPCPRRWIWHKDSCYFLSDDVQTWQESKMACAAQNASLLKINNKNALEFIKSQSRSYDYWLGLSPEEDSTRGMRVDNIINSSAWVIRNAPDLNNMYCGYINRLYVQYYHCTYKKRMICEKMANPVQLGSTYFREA

[6] = target: T4, Human CLEC12A-His (recombinant, K244 WT); assay: SPR, untreated CLEC12A, two-state fit (ka1)
Experimental: (§1) Briefly, human Fc specific antibodies were covalently immobilized at a density ˜8000-10000 resonance units (RU) on carboxy methyl dextran matrix of a CM5 biosensor chip via amine-coupling chemistry to create an anti-hFc IgG chip. […] Association was monitored for 300 seconds and dissociation was monitored for 600 seconds. Surfaces were regenerated between cycles with three pulses of 10 mM glycine-HCl, pH 1.7 injected for 20 seconds at 100 μl/min. HBS-EP+ (1×) with 0.1 mg/ml BSA was used as running buffer throughout the experiment. Experiments were performed at physiological temperature of 37° C. To obtain kinetic rate constants and overall binding affinity, double-referenced data were fit to a two-state kinetic model using Biacore 8K Insight Evaluation software (Cytiva).

[7] = target: T4, Human CLEC12A-His (recombinant, K244 WT); assay: SPR, two-state fit (kd1); after 4 wks 40C in HST pH 6.0
Experimental: as §1

T3 sequence (P08637 17-208 F176V limits assumed): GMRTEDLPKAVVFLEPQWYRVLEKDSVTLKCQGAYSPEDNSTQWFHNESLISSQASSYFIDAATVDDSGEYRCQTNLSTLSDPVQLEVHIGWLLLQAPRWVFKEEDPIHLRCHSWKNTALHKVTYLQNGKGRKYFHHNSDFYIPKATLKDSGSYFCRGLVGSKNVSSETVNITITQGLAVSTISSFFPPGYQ
T2 sequence (P08637 17-208 limits assumed): as the sequence (P08637 17-208 F176V limits assumed) above, with V160F counted along it

B1: AB0089 TriNKET (bispecific antibody, human IgG1, kappa)
chain: QLQLQESGPGLVKPSETLSLTCTVSGFSLTNYGLHWIRQPPGKCLEWIGVIWVGGATDYNPSLKSRVTISVDTSKNQFSLKLSSVQAADTAVYYCAKGDYGDTLDYWGQGTLVTVSSGGGGSGGGGSGGGGSGGGGSDIQMTQSPSSLSASVGDRVTITCHASQNINFWLSWYQQKPGKAPKLLIYEASNLHTGVPSRFSGSGSGTDFTLTISSLQPEDFATYYCQQSHSYPLTFGCGTKLEIKGSDKTHTCPPCPAPELLGGPSVFLFPPKPKDTLMISRTPEVTCVVVDVSHEDPEVKFNWYVDGVEVHNAKTKPREEQYNSTYRVVSVLTVLHQDWLNGKEYKCKVSNKALPAPIEKTISKAKGQPREPRVYTLPPCRDELTKNQVSLTCLVKGFYPSDIAVEWESNGQPENNYKTTPPVLVSDGSFTLYSKLTVDKSRWQQGNVFSCSVMHEALHNHYTQKSLSLSPG
heavy: EVQLVESGGGLVKPGGSLRLSCAASGFTFSSYSMNWVRQAPGKGLEWVSSISSSSSYIYYADSVKGRFTISRDNAKNSLYLQMNSLRAEDTAVYYCARGAPIGAAAGWFDPWGQGTLVTVSSASTKGPSVFPLAPSSKSTSGGTAALGCLVKDYFPEPVTVSWNSGALTSGVHTFPAVLQSSGLYSLSSVVTVPSSSLGTQTYICNVNHKPSNTKVDKKVEPKSCDKTHTCPPCPAPELLGGPSVFLFPPKPKDTLMISRTPEVTCVVVDVSHEDPEVKFNWYVDGVEVHNAKTKPREEQYNSTYRVVSVLTVLHQDWLNGKEYKCKVSNKALPAPIEKTISKAKGQPREPQVCTLPPSRDELTENQVSLTCLVKGFYPSDIAVEWESNGQPENNYKTTPPVLDSDGSFFLYSWLTVDKSRWQQGNVFSCSVMHEALHNHYTQKSLSLSPG
light: DIQMTQSPSSVSASVGDRVTITCRASQGISSWLAWYQQKPGKAPKLLIYAASSLQSGVPSRFSGSGSGTDFTLTISSLQPEDFATYYCQQGVSFPRTFGGGTKVEIKRTVAAPSVFIFPPSDEQLKSGTASVVCLLNNFYPREAKVQWKVDNALQSGNSQESVTEQDSKDSTYSLSSTLTLSKADYEKHKVYACEVTHQGLSSPVTKSFNRGEC
notes: F3' format heterodimer of three chains; human IgG1 Fc with EW-RVT and Y349C/S354C mutations; also called AB0089 Lot AB0089-002; CLEC12A TriNKET AB0089
B1 was tested, and the “EC50, primary NK mediated cytotoxic killing of PL21 cells” value [1] was 0.35 nM, the “EC50, KHYG1-CD16aV cytotoxicity assay, HL-60 cells; control (AB0089-002)” value [2] was 0.04 nM and the “EC50, KHYG1-CD16aV cytotoxicity assay, HL-60 cells; low pH hold (AB0089-004)” value [2] was 30 pM. The Kd [3] was 1270 nM, the Kd [4] was 336 nM and 343 nM and 321 nM and the koff [4] was 0.0294 s⁻¹ and 0.0264 s⁻¹ and 0.0272 s⁻¹. For the same binder, the kon [4] was 87600 M⁻¹ s⁻¹ and 77000 M⁻¹ s⁻¹ and 84600 M⁻¹ s⁻¹, the Kd [5] was 0.9 nM and the kon [6] was 1.63e+07 M⁻¹ s⁻¹. For the same binder, the koff [7] was 0.0424 s⁻¹.
